According to the supplement of paper PMC9112550, “Optimization of the antimicrobial peptide Bac7 by deep mutational scanning” (BMC Biology, 2022):

Tested on: Escherichia coli TOP10
Experiment: shrunken log2 fold change of peptide-encoding DNA abundance (4.5 h post-induction vs induction); higher = less antimicrobial activity (less host growth inhibition)
Settings: time post-induction: 4.5 h; library: site-saturation at positions 5, 18, 19, 20
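Note: peptides expressed intracellularly from a pBAD plasmid library in pooled LB shake-flask culture, induced with 0.3% L-arabinose, DNA abundance read by NGS, three biological replicates, DESeq2 with apeglm shrinkage.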

Sequence | shrunken log2 fold change
RRIRARPPRLPRPRPRPKPDPRP | 0.582
RRIRWRPPRLPRPRPRPYDGPRP | -0.337
RRIRPRPPRLPRPRPRPWCTPRP | -0.218
RRIRMRPPRLPRPRPRPKQFPRP | 0.255
RRIRARPPRLPRPRPRPWADPRP | 0.0394
RRIRGRPPRLPRPRPRPVGVPRP | 1.08
RRIRMRPPRLPRPRPRPGGLPRP | 0.818
RRIRIRPPRLPRPRPRPVSTPRP | -0.342
RRIRQRPPRLPRPRPRPWYNPRP | -0.375
RRIRIRPPRLPRPRPRPDDQPRP | 0.0121
RRIRVRPPRLPRPRPRPECWPRP | 0.573
RRIRSRPPRLPRPRPRPKSSPRP | -0.176
RRIRIRPPRLPRPRPRPNPDPRP | -0.659
RRIRRRPPRLPRPRPRPELSPRP | 0.0649
RRIRIRPPRLPRPRPRPLENPRP | -0.309
RRIRDRPPRLPRPRPRPRSIPRP | -0.0279
RRIRKRPPRLPRPRPRPFNKPRP | -0.0789
RRIRLRPPRLPRPRPRPFFSPRP | -0.0767
RRIRSRPPRLPRPRPRPIPLPRP | -0.115
RRIRFRPPRLPRPRPRPEYIPRP | -0.0963
RRIRCRPPRLPRPRPRPICYPRP | -0.358
RRIRPRPPRLPRPRPRPNWQPRP | 0.131

Sequence | shrunken log2 fold change
RRIRNRPPRLPRPRPRPWRYPRP | -0.0121
RRIRMRPPRLPRPRPRPSWPPRP | 0.144
RRIRERPPRLPRPRPRPCNAPRP | -0.0483
RRIRERPPRLPRPRPRPYGIPRP | -0.00973
RRIRFRPPRLPRPRPRPHSAPRP | -0.179
RRIRIRPPRLPRPRPRPNREPRP | -0.0355
RRIRWRPPRLPRPRPRPNNKPRP | -0.392
RRIRRRPPRLPRPRPRPYISPRP | -0.485
RRIRIRPPRLPRPRPRPHGHPRP | -0.216
RRIRFRPPRLPRPRPRPHSQPRP | -0.351
RRIRARPPRLPRPRPRPNPKPRP | 0.372
RRIRLRPPRLPRPRPRPDQPPRP | -0.129
RRIRDRPPRLPRPRPRPWYFPRP | -0.327
RRIRHRPPRLPRPRPRPEQTPRP | -0.01
RRIRMRPPRLPRPRPRPTGAPRP | 1.25
RRIRMRPPRLPRPRPRPKAEPRP | 3.05
RRIRGRPPRLPRPRPRPCHFPRP | 0.0576
RRIRYRPPRLPRPRPRPYCYPRP | -1.12
RRIRKRPPRLPRPRPRPDSAPRP | 0.115
RRIRNRPPRLPRPRPRPERDPRP | 0.157
RRIRNRPPRLPRPRPRPIVNPRP | 0.0189
RRIRVRPPRLPRPRPRPHTPPRP | -0.271

Sequence | shrunken log2 fold change
RRIRYRPPRLPRPRPRPNQEPRP | 0.000655
RRIRGRPPRLPRPRPRPDFYPRP | 0.232
RRIRYRPPRLPRPRPRPMTHPRP | -0.348
RRIRQRPPRLPRPRPRPSDQPRP | 0.152
RRIRQRPPRLPRPRPRPCHNPRP | -0.0554
RRIRPRPPRLPRPRPRPFGTPRP | -0.444
RRIRARPPRLPRPRPRPEMLPRP | 0.234
RRIRTRPPRLPRPRPRPVHIPRP | -0.149
RRIRFRPPRLPRPRPRPFLSPRP | -0.167
RRIRGRPPRLPRPRPRPSQFPRP | 0.192
RRIRARPPRLPRPRPRPQMPPRP | 0.465
RRIRKRPPRLPRPRPRPITEPRP | -0.147
RRIRWRPPRLPRPRPRPMDQPRP | -0.131
RRIRIRPPRLPRPRPRPSIGPRP | -0.333
RRIRLRPPRLPRPRPRPQYYPRP | -0.396
RRIRARPPRLPRPRPRPKVHPRP | 0.491
RRIRQRPPRLPRPRPRPKGGPRP | 0.0347
RRIRKRPPRLPRPRPRPKPGPRP | 1.2
RRIRQRPPRLPRPRPRPCRFPRP | 0.00388
RRIRPRPPRLPRPRPRPILGPRP | -0.148
RRIRYRPPRLPRPRPRPGNYPRP | -0.0361
RRIRMRPPRLPRPRPRPEMVPRP | 0.0598

Sequence | shrunken log2 fold change
RRIRGRPPRLPRPRPRPHKKPRP | -0.108
RRIRMRPPRLPRPRPRPRNHPRP | 0.263
RRIRWRPPRLPRPRPRPNRGPRP | 0.172
RRIRKRPPRLPRPRPRPSCCPRP | 0.269
RRIRKRPPRLPRPRPRPRFQPRP | -0.00313
RRIRARPPRLPRPRPRPGSAPRP | 0.444
RRIRFRPPRLPRPRPRPRSGPRP | 0.444
RRIRTRPPRLPRPRPRPTAEPRP | 0.458
RRIRIRPPRLPRPRPRPMFRPRP | -0.0542
RRIRDRPPRLPRPRPRPEYHPRP | -0.000207
RRIRYRPPRLPRPRPRPKIVPRP | -0.188
RRIRKRPPRLPRPRPRPKWTPRP | 0.198
RRIRGRPPRLPRPRPRPGCSPRP | 0.867
RRIRERPPRLPRPRPRPEIHPRP | -0.0198
RRIRFRPPRLPRPRPRPTGGPRP | 0.259
RRIRLRPPRLPRPRPRPNRKPRP | -0.223
RRIRDRPPRLPRPRPRPTTYPRP | -0.0974
RRIRDRPPRLPRPRPRPYDNPRP | -0.307
RRIRERPPRLPRPRPRPWYDPRP | -0.392
RRIRRRPPRLPRPRPRPKTRPRP | 2.44
RRIRQRPPRLPRPRPRPWDAPRP | -0.0479
RRIRWRPPRLPRPRPRPQNSPRP | 0.0838

Sequence | shrunken log2 fold change
RRIRERPPRLPRPRPRPGRTPRP | 0.251
RRIRVRPPRLPRPRPRPANKPRP | -0.36
RRIRQRPPRLPRPRPRPAVQPRP | 0.013
RRIRIRPPRLPRPRPRPDRVPRP | -0.0924
RRIRARPPRLPRPRPRPSCHPRP | -0.138
RRIRIRPPRLPRPRPRPIIMPRP | -0.34
RRIRWRPPRLPRPRPRPPHKPRP | 0.339
RRIRGRPPRLPRPRPRPDNSPRP | 0.0661
RRIRIRPPRLPRPRPRPAFMPRP | -0.3
RRIRDRPPRLPRPRPRPYIAPRP | -0.652
RRIRYRPPRLPRPRPRPDYFPRP | -0.22
RRIRTRPPRLPRPRPRPWYWPRP | -0.0177
RRIRFRPPRLPRPRPRPTLMPRP | 0.0425
RRIRHRPPRLPRPRPRPNPVPRP | -0.312
RRIRKRPPRLPRPRPRPKRIPRP | 0.0395
RRIRTRPPRLPRPRPRPAHVPRP | 0.0505
RRIRPRPPRLPRPRPRPKSKPRP | -0.255
RRIRDRPPRLPRPRPRPGVHPRP | -0.0373
RRIRDRPPRLPRPRPRPVGQPRP | 0.435
RRIRKRPPRLPRPRPRPAYAPRP | -0.085
RRIRQRPPRLPRPRPRPDLCPRP | -0.00719
